Holding throughout (experiment): native MS
The target of test [1] is Alcohol dehydrogenase 1 (S. cerevisiae) (S. cerevisiae) (UniProt P00330).
Test [2] has the same target. This is another data set of the same source.
Test [3] addresses Trastuzumab light chain, dissociated from the mAb.
In test [4] the target is Truncated alcohol dehydrogenase 1 (S. cerevisiae) (S. cerevisiae).

“And” between values parts separate entries of the source, which are not always exact repeats. Equal values may be shown once. Read-outs that look alike come from different tables or passages of the source.

Data on three substances can be found in paper PMC5709234.

Truncated alcohol dehydrogenase 1 (S. cerevisiae) (domain or fragment), sequence (P00330 2-348): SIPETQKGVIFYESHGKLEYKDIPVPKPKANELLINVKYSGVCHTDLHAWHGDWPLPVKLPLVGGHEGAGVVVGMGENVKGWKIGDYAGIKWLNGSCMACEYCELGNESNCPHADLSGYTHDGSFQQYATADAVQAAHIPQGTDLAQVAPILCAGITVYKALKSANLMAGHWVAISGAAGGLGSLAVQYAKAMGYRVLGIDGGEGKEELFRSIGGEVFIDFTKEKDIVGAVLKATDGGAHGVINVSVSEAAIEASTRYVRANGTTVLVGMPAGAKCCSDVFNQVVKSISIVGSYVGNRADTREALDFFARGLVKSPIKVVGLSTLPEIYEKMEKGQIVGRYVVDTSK

Take “Alcohol dehydrogenase 1 (S. cerevisiae) (from UniProt P00330 2-348) (enzyme)”: the stoichiometry N was 2 and 4 in test [1]; 4 in test [2]. In test [2], the percent detected as homotetramer was 92%. Turning to “Trastuzumab light chain, dissociated from the mAb (domain or fragment)”, the stoichiometry N in test [3] came out at 2.

For the substance “Truncated alcohol dehydrogenase 1 (S. cerevisiae) (domain or fragment)”, the stoichiometry N in test [4] was 4.

The term stoichiometry N denotes the number of molecules, sites or subunits per partner or assembly.
